Experimental data from the supplement of paper PMC7877785.
± gives the uncertainty stated by the source.

Assay: self-splicing fitness, log relative to wild type (ln ratio); higher = more splicing; Tetrahymena group I intron in knt gene, E. coli kanamycin selection, DiMSum; sequences stand for … in CUCUCU…GGAGGGAAAAGUUAUCAGGCAUGCACCUGGUAGCUAGUCUUUAAACCAAUAGAUUGCAUCGGUUUAAAAGGCAAGACCGUCAAAUUGCGGGAAAGGGGUCAACAGCCGUUCAGUACCAAGUCUCAGGGGAAACUUUGAGAUGGCCUUGCAAAGGGUAUGGUAAUAAGCUGACGGACAUGGUCCUAACCACGCAGCCAAGUCCUAAGUCAACAGAUCUUCUGUUGAUAUGGAUGCAGUUCACAGACUAAAUGUCGGUCGGGGAAGAUGUAUUCUUCUCAUAAGAUAUAGUCGGACCUCUCCUUAAUGGGAGCUAGCGGAUGAAGUGAUGCAACACUGGAGCCGCUGGGAACUAAUUUGUAUGCGAAAGUAUAUUGAUUAGUUUUGGAGUACUCGUGGUCG
Outline: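 Pooled colonies went to amplicon sequencing on an Illumina HiSeq 2500 after six replicate transformations. The plates were LB agar with 100 μg/mL carbenicillin, 50 μM IPTG and 0.2% rhamnose, with or without 25 μg/mL kanamycin, incubated overnight at 37°C or 30°C. The E. coli BL21(DE3) library had all eight P1ex-region intron nucleotides randomised, the intron placed in the knt kanamycin-resistance gene on pET-22b(+). DiMSum fitness is the error-weighted combination of replicate fold changes, kanamycin against none, normalised to wild type.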

| Sequence | self-splicing fitness (ln) (30 °C) | self-splicing fitness (ln) (37 °C) |
| --- | --- | --- |
| AAUAAGCAAUAUUACGUGGG | -3 ± 0.13 | -2.75 ± 0.17 |
| AAUCAGCAAUAUUACGAAAA | -1.45 ± 0.092 | -0.169 ± 0.1 |
| AAUCAGCAAUAUUACGAACA | -0.526 ± 0.12 | -0.161 ± 0.13 |
| AAUCAGCAAUAUUACGAACU | -0.125 ± 0.05 | 0.389 ± 0.077 |
| AAUCAGCAAUAUUACGACCG | -0.959 ± 0.098 | -0.795 ± 0.11 |
| AAUCAGCAAUAUUACGAUUA | -0.229 ± 0.088 | -0.426 ± 0.088 |
| AAUCAGCAAUAUUACGAUUU | -1.8 ± 0.076 | -0.714 ± 0.086 |
| AAUCAGCAAUAUUACGCAAA | -0.0279 ± 0.067 | -0.117 ± 0.078 |
| AAUCAGCAAUAUUACGCAGA | -1.04 ± 0.068 | -0.32 ± 0.07 |
| AAUCAGCAAUAUUACGCAUA | -0.272 ± 0.085 | -0.142 ± 0.13 |
| AAUCAGCAAUAUUACGCCAG | -0.398 ± 0.16 | -1.58 ± 0.17 |
| AAUCAGCAAUAUUACGCUAG | -0.729 ± 0.066 | 0.121 ± 0.09 |
| AAUCAGCAAUAUUACGGAAU | -0.646 ± 0.065 | -0.35 ± 0.075 |
| AAUCAGCAAUAUUACGUCCA | -0.876 ± 0.1 | -0.0432 ± 0.12 |
| AAUCAGCAAUAUUACGUGAA | -0.152 ± 0.065 | 0.257 ± 0.094 |
| AAUCAGCAAUAUUACGUUUC | -2.83 ± 0.14 | -1.2 ± 0.13 |
| AAUGAGCAAUAUUACGAAAG | – | -3.18 ± 0.4 |
| AAUGAGCAAUAUUACGAAUA | -3.37 ± 0.39 | -2 ± 0.32 |
| AAUGAGCAAUAUUACGACAG | -3.71 ± 0.29 | -1.85 ± 0.26 |
| AAUGAGCAAUAUUACGACAU | -1.33 ± 0.014 | -0.714 ± 0.033 |
| AAUGAGCAAUAUUACGACCG | -3.45 ± 0.36 | -1.24 ± 0.34 |
| AAUGAGCAAUAUUACGACGG | -3.86 ± 0.19 | -2.3 ± 0.21 |
| AAUGAGCAAUAUUACGAGAA | -2.17 ± 0.23 | -2.03 ± 0.32 |
| AAUGAGCAAUAUUACGAGCC | -1.79 ± 0.44 | – |
| AAUGAGCAAUAUUACGAGCU | -3.15 ± 0.24 | -3.57 ± 0.42 |

| Sequence | self-splicing fitness (ln) (30 °C) | self-splicing fitness (ln) (37 °C) |
| --- | --- | --- |
| AAUGAGCAAUAUUACGAGGU | -4.31 ± 0.29 | -2.49 ± 0.17 |
| AAUGAGCAAUAUUACGAUAA | -3.11 ± 0.17 | -2.51 ± 0.2 |
| AAUGAGCAAUAUUACGAUCA | – | -2.46 ± 0.31 |
| AAUGAGCAAUAUUACGCAAC | -2.46 ± 0.22 | -2.51 ± 0.44 |
| AAUGAGCAAUAUUACGCACC | – | -1.2 ± 0.48 |
| AAUGAGCAAUAUUACGCCGG | -3.52 ± 0.47 | -2.35 ± 0.36 |
| AAUGAGCAAUAUUACGCCGU | – | -2.55 ± 0.26 |
| AAUGAGCAAUAUUACGCGCG | -2.52 ± 0.18 | -1.9 ± 0.2 |
| AAUGAGCAAUAUUACGCUCU | -3.18 ± 0.19 | -3.53 ± 0.23 |
| AAUGAGCAAUAUUACGGACC | – | -1.08 ± 0.44 |
| AAUGAGCAAUAUUACGGCAG | -2.62 ± 0.24 | -1.87 ± 0.46 |
| AAUGAGCAAUAUUACGGCAU | -1.55 ± 0.12 | -0.695 ± 0.12 |
| AAUGAGCAAUAUUACGGCCC | -1.23 ± 0.47 | -1.48 ± 0.37 |
| AAUGAGCAAUAUUACGGGCU | -2.51 ± 0.18 | -2.21 ± 0.46 |
| AAUGAGCAAUAUUACGGUCA | -1.92 ± 0.28 | -1.45 ± 0.36 |
| AAUGAGCAAUAUUACGUAAU | -3.08 ± 0.17 | -1.33 ± 0.15 |
| AAUGAGCAAUAUUACGUACA | -2.3 ± 0.36 | -3.21 ± 0.33 |
| AAUGAGCAAUAUUACGUAGC | -2.91 ± 0.2 | -2.05 ± 0.36 |
| AAUGAGCAAUAUUACGUAUU | -3.41 ± 0.14 | -2.48 ± 0.16 |
| AAUGAGCAAUAUUACGUCGC | -3.95 ± 0.29 | -2.79 ± 0.32 |
| AAUGAGCAAUAUUACGUCGG | -3.31 ± 0.22 | -2.44 ± 0.4 |
| AAUGAGCAAUAUUACGUGUC | -3.39 ± 0.25 | -3.65 ± 0.39 |
| AAUUAGCAAUAUUACGAAAC | – | -0.761 ± 0.4 |
| AAUUAGCAAUAUUACGAACC | -0.0097 ± 0.32 | -0.827 ± 0.36 |
| AAUUAGCAAUAUUACGAAGU | -2.79 ± 0.21 | -1.05 ± 0.17 |

| Sequence | self-splicing fitness (ln) (30 °C) | self-splicing fitness (ln) (37 °C) |
| --- | --- | --- |
| AAUUAGCAAUAUUACGAAUA | -1.67 ± 0.41 | 0.49 ± 0.3 |
| AAUUAGCAAUAUUACGACUU | 0.0659 ± 0.11 | 0.0237 ± 0.14 |
| AAUUAGCAAUAUUACGAGAG | -3.43 ± 0.23 | -1.09 ± 0.18 |
| AAUUAGCAAUAUUACGAGGC | -2.7 ± 0.32 | -2.6 ± 0.44 |
| AAUUAGCAAUAUUACGAGUA | -1.86 ± 0.24 | -1.16 ± 0.18 |
| AAUUAGCAAUAUUACGAUCG | -0.473 ± 0.13 | 0.0147 ± 0.16 |
| AAUUAGCAAUAUUACGAUGC | -1.25 ± 0.15 | -0.872 ± 0.18 |
| AAUUAGCAAUAUUACGAUUC | -2.85 ± 0.24 | -1.13 ± 0.34 |
| AAUUAGCAAUAUUACGCAAG | -0.991 ± 0.13 | -1.4 ± 0.19 |
| AAUUAGCAAUAUUACGCACG | -2.18 ± 0.2 | -0.641 ± 0.17 |
| AAUUAGCAAUAUUACGCCUG | -0.979 ± 0.14 | -0.733 ± 0.21 |
| AAUUAGCAAUAUUACGCCUU | -0.243 ± 0.11 | -0.0919 ± 0.12 |
| AAUUAGCAAUAUUACGCGAA | -1.34 ± 0.15 | -1.89 ± 0.25 |
| AAUUAGCAAUAUUACGCGAU | -3.62 ± 0.32 | -2.31 ± 0.23 |
| AAUUAGCAAUAUUACGCGGU | -3.63 ± 0.21 | -1.55 ± 0.21 |
| AAUUAGCAAUAUUACGCUCA | -0.656 ± 0.12 | -0.204 ± 0.16 |
| AAUUAGCAAUAUUACGGAGA | -3.3 ± 0.45 | -1.98 ± 0.36 |
| AAUUAGCAAUAUUACGGCAG | -0.691 ± 0.11 | -0.322 ± 0.1 |
| AAUUAGCAAUAUUACGGCGG | -1.81 ± 0.11 | -0.193 ± 0.13 |
| AAUUAGCAAUAUUACGGCUG | -0.324 ± 0.082 | 0.339 ± 0.12 |
| AAUUAGCAAUAUUACGGGGA | -2.98 ± 0.27 | -2.07 ± 0.26 |
| AAUUAGCAAUAUUACGGUCC | -0.652 ± 0.12 | 0.122 ± 0.15 |
| AAUUAGCAAUAUUACGUAGG | -2.69 ± 0.12 | -1.96 ± 0.18 |
| AAUUAGCAAUAUUACGUAUA | -1.83 ± 0.28 | -1.32 ± 0.38 |
| AAUUAGCAAUAUUACGUGGA | -3.12 ± 0.2 | -2.27 ± 0.17 |

| Sequence | self-splicing fitness (ln) (30 °C) | self-splicing fitness (ln) (37 °C) |
| --- | --- | --- |
| AAUUAGCAAUAUUACGUGGC | -3.39 ± 0.2 | -1.96 ± 0.24 |
| AAUUAGCAAUAUUACGUGUG | -2.11 ± 0.11 | -0.784 ± 0.096 |
| ACAAAGCAAUAUUACGACGA | -0.436 ± 0.063 | -0.207 ± 0.062 |
| ACAAAGCAAUAUUACGAUAA | -1.38 ± 0.086 | -1 ± 0.1 |
| ACAAAGCAAUAUUACGAUGG | -1.44 ± 0.08 | -0.402 ± 0.1 |
| ACAAAGCAAUAUUACGCAGG | -1.47 ± 0.064 | -1.21 ± 0.08 |
| ACAAAGCAAUAUUACGCCAG | -1.94 ± 0.13 | -1.11 ± 0.16 |
| ACAAAGCAAUAUUACGCCGG | -0.52 ± 0.065 | -0.282 ± 0.083 |
| ACAAAGCAAUAUUACGCUUG | -1.62 ± 0.057 | -0.984 ± 0.079 |
| ACAAAGCAAUAUUACGGACA | -1.29 ± 0.13 | -0.782 ± 0.11 |
| ACAAAGCAAUAUUACGGACG | -0.851 ± 0.045 | -0.124 ± 0.065 |
| ACAAAGCAAUAUUACGGGUU | -2.54 ± 0.087 | -1.23 ± 0.09 |
| ACAAAGCAAUAUUACGGUAC | -3.33 ± 0.13 | -2.3 ± 0.15 |
| ACAAAGCAAUAUUACGGUAU | -3.56 ± 0.13 | -1.35 ± 0.099 |
| ACAAAGCAAUAUUACGGUCG | -1.24 ± 0.055 | -0.228 ± 0.08 |
| ACAAAGCAAUAUUACGGUGU | -3.29 ± 0.14 | -2.81 ± 0.15 |
| ACAAAGCAAUAUUACGUCCU | -0.488 ± 0.07 | -0.399 ± 0.08 |
| ACACAGCAAUAUUACGAAAA | -3.2 ± 0.19 | -3 ± 0.19 |
| ACACAGCAAUAUUACGAAAC | -3.02 ± 0.23 | -1.82 ± 0.22 |
| ACACAGCAAUAUUACGACUU | -0.131 ± 0.043 | 0.0165 ± 0.056 |
| ACACAGCAAUAUUACGAGAA | -3.53 ± 0.37 | -2.54 ± 0.24 |
| ACACAGCAAUAUUACGAUGA | -0.664 ± 0.048 | -0.444 ± 0.057 |
